The record followed here is PMC3884107 (PLoS ONE, 2013).

Broadly, the Kd is the concentration at which binding is half-saturated. The EC50 is the concentration giving half of the maximal effect. Usually koff stands for a measure of how fast the partners let go of each other. Low values mean slow dissociation, high ones fast dissociation. What is called kon is the second-order rate constant of association. Low values mean slow association, high ones fast association.

For test [1], the target named is T1, human RON on 3T3-hRON cells (human, UniProt Q04912-1 25-1400).
T1 construct: human RON (Recepteur d'Origine Nantais, MST1R) expressed on the surface of 3T3-hRON cells; In the functional rows this molecule also stands for human RON on A2780-hRON, BxPC3, HCT15 and HPC5 cells; also called Recepteur d'Origine Nantais; MST1R; source: 3T3 cells stably transfected with human RON (3T3-hRON), on cells
Nature of the test: radioligand binding; competition of 125I-MSP with unlabeled MSP on 3T3-hRON cells, 4 h on ice. The note with it: one partner purified.

Test [2] has as its target T2, RON-Fc (human RON Sema, PSI and IPT1 domains, E25-M682, Fc fusion with human IgG1) (human, UniProt Q04912-1 25-682).
T2 construct: human RON (Recepteur d'Origine Nantais, MST1R), Sema, PSI and IPT1 domains, E25-M682; also called RON-Fc fusion protein; source: CHO cells; purified (MabSelect Sure, SEC)
T2 sequence (looked up): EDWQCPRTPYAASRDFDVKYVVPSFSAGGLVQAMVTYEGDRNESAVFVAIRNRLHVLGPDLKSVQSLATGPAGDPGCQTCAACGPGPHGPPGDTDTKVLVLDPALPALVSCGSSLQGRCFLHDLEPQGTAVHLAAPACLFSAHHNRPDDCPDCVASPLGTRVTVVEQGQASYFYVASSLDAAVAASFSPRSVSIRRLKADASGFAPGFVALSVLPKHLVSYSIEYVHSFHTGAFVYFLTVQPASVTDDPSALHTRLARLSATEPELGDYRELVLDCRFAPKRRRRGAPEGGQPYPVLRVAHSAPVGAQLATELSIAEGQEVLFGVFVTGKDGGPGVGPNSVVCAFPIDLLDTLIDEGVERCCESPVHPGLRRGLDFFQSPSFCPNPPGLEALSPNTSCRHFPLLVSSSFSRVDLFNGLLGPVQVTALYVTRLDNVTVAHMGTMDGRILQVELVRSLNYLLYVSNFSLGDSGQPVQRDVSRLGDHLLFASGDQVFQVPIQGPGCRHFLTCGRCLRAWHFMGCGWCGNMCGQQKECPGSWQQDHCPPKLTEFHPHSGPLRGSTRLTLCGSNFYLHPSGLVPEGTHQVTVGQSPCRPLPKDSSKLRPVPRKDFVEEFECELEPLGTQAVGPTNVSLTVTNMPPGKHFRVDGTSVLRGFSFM
Nature of the test: ELISA; RON-Fc (1 µg/ml) captured on plate-coated rabbit anti-human IgG Fc; MSP 1000 nM-0.2 pM, 1 h, room temperature; 50 mM HEPES pH 7.2, 150 mM NaCl, 5 mM CaCl2, 1% BSA, 0.1% Tween-20; bound MSP detected with anti-His-HRP; 4-parameter fit. The note with it: both partners purified. In general terms: In an ELISA, binding on a coated surface is turned into a signal by an enzyme label.

In test [3] the target is T1, human RON on 3T3-hRON cells. The test is described as follows: radioligand binding; competition of 125I-MSP with unlabeled MSP (from 5 µM) on 150,000 3T3-hRON cells, 2 h at room temperature; DMEM, 1% BSA, 325 nM human IgG, 50 mM HEPES pH 7.2, 0.1% sodium azide; Scatchard analysis. To be noted: one partner purified.
The target in test [4] is T2, RON-Fc (human RON Sema, PSI and IPT1 …). The test is described as follows: BLI; RON-Fc (10 µg/ml) loaded on anti-human IgG Fc biosensors, Octet RED384; MSP, MSP β or scMSP 75-4.7 nM, 400 s association, 400 s dissociation, 30°C; global 1:1 fit, KD = koff/kon. The note with it: both partners purified. A general note: Biolayer interferometry detects binding as a change in optical thickness at a sensor tip.

Test [5] concerns the target T3, RON Sema/PSI (human RON residues E25-P568) (human, UniProt Q04912-1 25-568).
T3 construct: human RON (Recepteur d'Origine Nantais, MST1R), Sema and PSI domains, E25-P568; Expressed with an N-terminal gp67 secretion signal; source: Trichoplusia ni insect cells, baculovirus; purified from the media (Ni-NTA, SEC)
T3 sequence (looked up): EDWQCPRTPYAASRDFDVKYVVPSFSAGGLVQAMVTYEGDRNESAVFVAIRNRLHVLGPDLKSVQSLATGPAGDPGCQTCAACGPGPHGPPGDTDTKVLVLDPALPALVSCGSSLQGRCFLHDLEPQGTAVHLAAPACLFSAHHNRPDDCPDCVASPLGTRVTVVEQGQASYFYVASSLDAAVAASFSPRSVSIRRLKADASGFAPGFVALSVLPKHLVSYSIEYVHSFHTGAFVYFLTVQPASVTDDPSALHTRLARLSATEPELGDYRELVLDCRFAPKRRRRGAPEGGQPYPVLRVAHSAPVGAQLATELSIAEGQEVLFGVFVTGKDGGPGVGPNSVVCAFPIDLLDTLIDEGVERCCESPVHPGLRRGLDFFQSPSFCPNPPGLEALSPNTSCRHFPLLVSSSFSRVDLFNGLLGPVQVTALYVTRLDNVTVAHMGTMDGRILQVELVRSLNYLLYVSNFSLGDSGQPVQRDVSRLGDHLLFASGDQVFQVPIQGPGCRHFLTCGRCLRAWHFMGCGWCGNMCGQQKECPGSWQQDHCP
Nature of the test: SPR; RON Sema/PSI amine-coupled to a CM5 chip, Biacore 3000; MSP, MSP β or scMSP injected 500-3.9 nM in HBS-P (10 mM HEPES pH 7.5, 150 mM NaCl, 0.005% P20), 25°C, 30 µl/min; global 1:1 Langmuir fit, KD = koff/kon. The note with it: both partners purified. (In SPR one partner is held on a chip, and binding of the other changes the refractive index at the surface.)

Test [6] addresses T2, RON-Fc (human RON Sema, PSI and IPT1 …). The test is described as follows: SPR; RON-Fc captured (50-100 RU) on immobilised anti-human Fc surfaces, CM5 chip, Biacore 3000; MSP, MSP β or scMSP injected 500-3.9 nM in HBS-P (10 mM HEPES pH 7.5, 150 mM NaCl, 0.005% P20), 25°C, 30 µl/min; global 1:1 Langmuir fit, KD = koff/kon. The note with it: both partners purified.

B1: MSP 689R (active two-chain macrophage stimulating protein; Q19-G711; C672A) (ligand, human)
chain 1: QRSPLNDFQVLRGTELQHLLHAVVPGPWQEDVADAEECAGRCGPLMDCRAFHYNVSSHGCQLLPWTQHSPHTRLRRSGRCDLFQKKDYVRTCIMNNGVGYRGTMATTVGGLPCQAWSHKFPNDHKYTPTLRNGLEENFCRNPDGDPGGPWCYTTDPAVRFQSCGIKSCREAACVWCNGEEYRGAVDRTESGRECQRWDLQHPHQHPFEPGKFLDQGLDDNYCRNPDGSERPWCYTTDPQIEREFCDLPRCGSEAQPRQEATTVSCFRGKGEGYRGTANTTTAGVPCQRWDAQIPHQHRFTPEKYACKDLRENFCRNPDGSEAPWCFTLRPGMRAAFCYQIRRCTDDVRPQDCYHGAGEQYRGTVSKTRKGVQCQRWSAETPHKPQFTFTSEPHAQLEENFCRNPDGDSHGPWCYTMDPRTPFDYCALRRCADDQPPSILDPPDQVQFEKCGKRVDRLDQRRSKLR
chain 2: VVGGHPGNSPWTVSLRNRQGQHFCGGSLVKEQWILTARQCFSSCHMPLTGYEVWLGTLFQNPQHGEPSLQRVPVAKMVCGPSGSQLVLLKLERSVTLNQRVALICLPPEWYVVPPGTKCEIAGWGETKGTGNDTVLNVALLNVISNQECNIKHRGRVRESEMCTEGLLAPVGACEGDYGGPLACFTHNAWVLEGIIIPNRVCARSRWPAVFTRVSVFVDWIHKVMRLG
notes: MSP alpha-chain of human macrophage stimulating protein: from Q19 of the pro-MSP construct to R483 (cleavage between R483 and V484); disulfide-linked to the beta-chain; Made as single-chain pro-MSP (Q19-G711; C672A; C-terminal 6-His) and cleaved by sHepsin; For the radioligand assay part of the protein was iodinated with 125I (Iodogen); also called HGFL; MST1; source: CHO cells, transiently …
With B1, the Kd was found to be 23 nM in test [1] and 12.6 nM in test [3]. Also, the EC50 in test [2] amounted to 0.1 nM.

B2: MSP β 689R (V484-G711; C588S, C672A) (domain or fragment, human, UniProt P26927 484-711, looked up)
chain: VVGGHPGNSPWTVSLRNRQGQHFCGGSLVKEQWILTARQCFSSCHMPLTGYEVWLGTLFQNPQHGEPSLQRVPVAKMVCGPSGSQLVLLKLERSVTLNQRVALISLPPEWYVVPPGTKCEIAGWGETKGTGNDTVLNVALLNVISNQECNIKHRGRVRESEMCTEGLLAPVGACEGDYGGPLACFTHNAWVLEGIIIPNRVCARSRWPAVFTRVSVFVDWIHKVMRLG
notes: source: CHO cells, transiently transfected, secreted; purified (Ni-NTA, SEC); not shown: His6, C-terminal, kept
For B2, in test [2], the EC50 stood at 0.05 nM. In test [4], this molecule registered a Kd of 7.5 nM, a koff of 0.0035 s⁻¹ and a kon of 470000 M⁻¹ s⁻¹. For the same molecule, in test [5], the Kd was 6.6 nM, the koff came out at 0.0184 s⁻¹ and the kon worked out at 2.71e+06 M⁻¹ s⁻¹. In test [6], the Kd stood at 9.6 nM, the off-rate (koff) stood at 0.0175 s⁻¹ and the kon worked out at 1.81e+06 M⁻¹ s⁻¹.

B3: MSP 689C (active two-chain macrophage stimulating protein; Q19-G711; C672A; 689C) (ligand, human)
chain 1: QRSPLNDFQVLRGTELQHLLHAVVPGPWQEDVADAEECAGRCGPLMDCRAFHYNVSSHGCQLLPWTQHSPHTRLRRSGRCDLFQKKDYVRTCIMNNGVGYRGTMATTVGGLPCQAWSHKFPNDHKYTPTLRNGLEENFCRNPDGDPGGPWCYTTDPAVRFQSCGIKSCREAACVWCNGEEYRGAVDRTESGRECQRWDLQHPHQHPFEPGKFLDQGLDDNYCRNPDGSERPWCYTTDPQIEREFCDLPRCGSEAQPRQEATTVSCFRGKGEGYRGTANTTTAGVPCQRWDAQIPHQHRFTPEKYACKDLRENFCRNPDGSEAPWCFTLRPGMRAAFCYQIRRCTDDVRPQDCYHGAGEQYRGTVSKTRKGVQCQRWSAETPHKPQFTFTSEPHAQLEENFCRNPDGDSHGPWCYTMDPRTPFDYCALRRCADDQPPSILDPPDQVQFEKCGKRVDRLDQRRSKLR
chain 2: VVGGHPGNSPWTVSLRNRQGQHFCGGSLVKEQWILTARQCFSSCHMPLTGYEVWLGTLFQNPQHGEPSLQRVPVAKMVCGPSGSQLVLLKLERSVTLNQRVALICLPPEWYVVPPGTKCEIAGWGETKGTGNDTVLNVALLNVISNQECNIKHRGRVRESEMCTEGLLAPVGACEGDYGGPLACFTHNAWVLEGIIIPNRVCARSCWPAVFTRVSVFVDWIHKVMRLG
notes: MSP alpha-chain of human macrophage stimulating protein: from Q19 of the pro-MSP construct to R483 (cleavage between R483 and V484); disulfide-linked to the beta-chain; Made as single-chain pro-MSP (Q19-G711; C672A; C-terminal 6-His) and cleaved by sHepsin; For the radioligand assay part of the protein was iodinated with 125I (Iodogen); source: CHO cells, transiently transfected, secreted; …
As for B3, the equilibrium dissociation constant (Kd) turned out to be 25.7 nM in test [1] and 13 nM in test [3]. The EC50 in test [2] came to 0.2 nM.

B4: MSP β 672C 689C (V484-G711; C588S, without C672A; 689C) (domain or fragment, human, UniProt P26927 484-711, looked up)
chain: VVGGHPGNSPWTVSLRNRQGQHFCGGSLVKEQWILTARQCFSSCHMPLTGYEVWLGTLFQNPQHGEPSLQRVPVAKMVCGPSGSQLVLLKLERSVTLNQRVALISLPPEWYVVPPGTKCEIAGWGETKGTGNDTVLNVALLNVISNQECNIKHRGRVRESEMCTEGLLAPVGACEGDYGGPLACFTHNCWVLEGIIIPNRVCARSCWPAVFTRVSVFVDWIHKVMRLG
notes: source: CHO cells, transiently transfected, secreted; purified (Ni-NTA, SEC)
In test [6], B4 had a Kd of 9.7 nM, a koff of 0.0075 s⁻¹ and a kon of 770000 M⁻¹ s⁻¹.

B5: MSP β 672C 689R (V484-G711; C588S, without C672A) (domain or fragment, human, UniProt P26927 484-711, looked up)
chain: VVGGHPGNSPWTVSLRNRQGQHFCGGSLVKEQWILTARQCFSSCHMPLTGYEVWLGTLFQNPQHGEPSLQRVPVAKMVCGPSGSQLVLLKLERSVTLNQRVALISLPPEWYVVPPGTKCEIAGWGETKGTGNDTVLNVALLNVISNQECNIKHRGRVRESEMCTEGLLAPVGACEGDYGGPLACFTHNCWVLEGIIIPNRVCARSRWPAVFTRVSVFVDWIHKVMRLG
notes: as for B4
On to B5, for which, in test [6], the Kd amounted to 6.3 nM, the koff worked out at 0.0066 s⁻¹ and the kon was 860000 M⁻¹ s⁻¹.

B6: MSP β 689C (V484-G711; C588S, C672A; 689C) (domain or fragment, human, UniProt P26927 484-711, looked up)
chain: VVGGHPGNSPWTVSLRNRQGQHFCGGSLVKEQWILTARQCFSSCHMPLTGYEVWLGTLFQNPQHGEPSLQRVPVAKMVCGPSGSQLVLLKLERSVTLNQRVALISLPPEWYVVPPGTKCEIAGWGETKGTGNDTVLNVALLNVISNQECNIKHRGRVRESEMCTEGLLAPVGACEGDYGGPLACFTHNAWVLEGIIIPNRVCARSCWPAVFTRVSVFVDWIHKVMRLG
notes: as for B2
In test [2], B6 returned an EC50 of 0.1 nM. Moreover, in test [4], binding was characterised by a dissociation constant (Kd) of 9.1 nM, the koff was found to be 0.0093 s⁻¹ and the kon was determined as 1.05e+06 M⁻¹ s⁻¹. In test [5], the affinity, expressed as Kd, was 9.1 nM; the koff came out at 0.0134 s⁻¹; the kon came out at 1.46e+06 M⁻¹ s⁻¹. In test [6], the Kd came out at 9 nM, the koff is 0.0419 s⁻¹ and the kon is 4.42e+06 M⁻¹ s⁻¹.
